Measurements taken from IntAct's records for PubMed 30245403.

Target: T1, prdx2_human PRDX2 (UniProt P32119)
T1 sequence: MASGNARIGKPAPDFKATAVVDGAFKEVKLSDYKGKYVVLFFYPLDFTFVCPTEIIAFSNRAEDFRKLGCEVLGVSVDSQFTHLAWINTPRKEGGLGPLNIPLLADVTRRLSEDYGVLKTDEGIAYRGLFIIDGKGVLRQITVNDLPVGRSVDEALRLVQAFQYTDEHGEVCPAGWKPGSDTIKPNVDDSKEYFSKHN

Row | Substance | effect of a mutation on the interaction
1 | "DNA (cytosine-5)-methyltransferase 3A" (Homo sapiens) (from UniProt Q9Y6K1) R882H | increasing interaction strength
2 | "DNA (cytosine-5)-methyltransferase 3A" (Homo sapiens) (from UniProt Q9Y6K1) R882C | with no effect
